From paper PMC7317449, “On the mechanism of calcium‐dependent activation of NADPH oxidase 5 (NOX5)” (The Febs Journal, 2019)

What was measured:
[1] = molecular target: the molecule itself; assay: SEC-MALS; Superdex 200 10/300 GL, 100 μL samples, 50 mM Hepes pH 7.0, 25 mM NaCl, 0.5 TCEP, 1 mL/min; monomer to dimer
human calmodulin = molecular target: T1, human calmodulin (human, UniProt P0DP23 1-149); assay: crystal structure; cocrystallised: 1078 µM calmodulin, 2800 µM peptide, 30 mM Tris/HCl pH 7.4, 2.5 mM CaCl2, 20 °C, sitting drop; 2.2 Å; details: both partners purified
T1 construct: calmodulin, human; gene a gift from Susan Shao, cloned in pET15b without tag; source: cloned in pET15b without tag, purified following established protocols

B1: EF-domain of hNOX5 (residues 1–161, isoform β) (domain or fragment, human)
chain: MSAEEDARWLRWVTQQFKTIAGEDGEISLQEFKAALHVKESFFAERFFALFDSDRSGTITLQELQEALTLLIHGSPMDKLKFLFQVYDIDGSGSIDPDELRTVLQSCLRESAISLPDEKLDQLTLALFESADADGNGAITFEELRDELQRFPGVMENLTISAAA
notes: NADPH oxidase 5 (NOX5), human, isoform β (v2), EF-domain, residues 1-161; stretch of three alanines from the Not I restriction site, added at the C terminus for cloning reasons (told in words); also called human EF-domain; hEF domain; source: E. coli BL21, purified (Strep column, TEV cleavage, Strep and Nickel columns, Superdex 75); not shown: Strep-tag, N-terminal, cleaved
[1]
  stoichiometry N: 2

B2: peptide 673–691 of human DH-domain (putative calmodulin-binding region of hNOX5) (peptide)
peptide: Ac-DWSKVFQKVAAEKKGKVQV-NH2
notes: methods: peptide 673-691; The limits are told in two ways (673-691 and 674-685); Val691 is named as a contact, which fits 673-691; also called DH peptide; hNOX5 peptide; source: synthetic peptide (Chinepeptide Co, Shanghai)
Human calmodulin
  binding result: binds
